Columns and labels:
proteasome = experiment: Proteasome inhibitor treatment of cells expressing pro-TGFalpha; assay type: cell-based; settings: 2 μM
Procedure: Cell culture and cell-based rhomboid cleavage assay. Cells were propagated in DMEM supplemented with 10% fetal calf serum. COS-7 cells were transfected in 35 mm wells with FuGENE 6 (Roche) as described (7). In brief, 250 ng plasmid encoding the substrate (as indicated in the description of the figures), 25 ng for the rhomboid tested, 50 ng for the GRP receptor and empty plasmid to bring the total DNA to 1 μg was used. For protease titration, 2.5 ng to 250 ng plasmid coding RHBDL4 was used. HeLa and HEK293T were transfected with polyethyleneimine (linear, MW 25000; Polysciences) as described (32) using twice the amount of DNA as used with FuGENE. Transfection efficiency was monitored by co-transfection of pEGFP (Invitrogen). Sixteen hours post transfection, medium was replaced with serum-free medium containing 10 μM BB94 (British Biotech) unless otherwise stated. For activation of endogenous rhomboid activity, phorbol 12-myristate 13-acetate (PMA) (1 μM, from Sigma) or bombesin (100 nM, from Sigma) was added to the cell medium. […] Cells were solubilized in SDS-sample buffer and analyzed by SDS-PAGE. […] The precipitate was recovered by centrifugation, washed with acetone and dissolved in SDS-PAGE sample buffer and analyzed by SDS-PAGE. […] Subsequently beads were washed with 20 mM Tris-Cl pH 8.0, 50 mM imidazole, eluted with SDS-sample buffer and analyzed by SDS-PAGE and Western blotting (see below). […]

[1] = target: T1, in vitro translated substrate comprising the transmembrane domain of Drosophila Gurken, P42287
T1 chain: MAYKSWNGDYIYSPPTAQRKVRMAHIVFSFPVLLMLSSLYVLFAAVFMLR

[2] = target: human pro-TGFalpha, P01135
Chain of human pro-TGFalpha, P01135 (P01135 whole entry, looked up): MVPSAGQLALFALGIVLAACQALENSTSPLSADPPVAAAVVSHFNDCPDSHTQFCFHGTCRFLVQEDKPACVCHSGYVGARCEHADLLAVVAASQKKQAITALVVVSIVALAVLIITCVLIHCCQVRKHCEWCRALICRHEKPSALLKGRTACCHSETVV

Drosophila Spitz, Q01083 = target: T2, Drosophila Spitz, Q01083
T2 chain: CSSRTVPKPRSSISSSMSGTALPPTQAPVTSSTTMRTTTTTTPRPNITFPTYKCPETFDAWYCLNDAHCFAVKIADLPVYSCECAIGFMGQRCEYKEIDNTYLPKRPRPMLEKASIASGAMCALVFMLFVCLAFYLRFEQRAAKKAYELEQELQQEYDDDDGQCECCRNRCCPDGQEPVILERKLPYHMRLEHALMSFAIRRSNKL

## CC[C@H](C)[C@H](NC(=O)[C@H]([C@@H](C)CC)N(C)C(C)=O)C(=O)N[C@H](C(=O)N[C@@H](CC(C)C)C(=O)[C@@]1(C)CO1)[C@@H](C)O [epoxomicin]
proteasome
  Effect on pro-TGFalpha forms (proteasomal degradation): led to unglycosylated TGFalpha

B1: recombinant mouse RHBDL1 from E. coli (protein)
chain: MDRSSLLQLIQEQQLDPENTGFIGADTFAGLVHSHELPLDPTKLDMLVALAQSNERGQVCYQELVDLISSKRSSSFKRAIANGQRALPRDGLLDEPGLSVYKRFVRYVAYEILPCEVDRRWYFYRHRTCPPPVFMASVTLAQIIVFLCYGARLNKWVLQTYHPEYMKSPLVYHPGHRARAWRFLTYMFMHVGLEQLGFNALLQLMIGVPLEMVHGVLRISLLYLAGVLAGSLTVSITDMRAPVVGGSGGVYALCSAHLANVVMNWAGMRCPYKLLRMVLALVCMSSEVGRAVWLRFSPPLPASGPQPSFMAHLAGAVVGVSMGLTILRSYEERLRDQCGWWVVLLAYGTFLLFAIFWNVFAYDLLGADIPPPP
[1]
  in vitro cleavage assay (SDS-PAGE, decrease of intact substrate band): The substrate was cleaved, as indicated by the decreased amount of intact substrate band

B2: mouse RHBDL1 with an N-terminal HA3-tag (protein)
chain: MDRSSLLQLIQEQQLDPENTGFIGADTFAGLVHSHELPLDPTKLDMLVALAQSNERGQVCYQELVDLISSKRSSSFKRAIANGQRALPRDGLLDEPGLSVYKRFVRYVAYEILPCEVDRRWYFYRHRTCPPPVFMASVTLAQIIVFLCYGARLNKWVLQTYHPEYMKSPLVYHPGHRARAWRFLTYMFMHVGLEQLGFNALLQLMIGVPLEMVHGVLRISLLYLAGVLAGSLTVSITDMRAPVVGGSGGVYALCSAHLANVVMNWAGMRCPYKLLRMVLALVCMSSEVGRAVWLRFSPPLPASGPQPSFMAHLAGAVVGVSMGLTILRSYEERLRDQCGWWVVLLAYGTFLLFAIFWNVFAYDLLGADIPPPP
[2]
  secreted 37 kDa product, FLAG6-tagged pro-TGFalpha (Western blot): overexpression of RHBDL1 caused a minor increase of secreted 37 kDa product

B3: mouse RHBDL4 with an N-terminal HA3-tag (protein)
chain: MQRRTRGINTGLLLLLSQVFQIGINNIPPVTLATLAVNVWFFLNPWKPLYHSCISVEKCYQQKDWQRLLLSPLHHGDDWHLYFNMVSMLWKGVKLERRLGSRWFAYVIATFSLLTGVVYLLLQFTVAELLNQPDFKRNCAVGFSGVLFALKVLSNHYCPGGFVNILGFPVPNRFACWAELVAIHFCTPGTSFAGHLAGILVGLMYTQGPLKKIMDTCAGIFISHAGPSGQQNHFNNAGPSGYQNHYADGRPVTYDATYRNYDVYTAGLSEEEQLERALRASIWDRGNTRNGPMPYGFRLPPEEMRRQRLHRFDGQ
Drosophila Spitz, Q01083
  cleavage: Note that RHBDL4 cleaves Spitz
[2]
  cleavage of pro-TGFalpha, titration of protease plasmid (Western blot): cleavage of TGFalpha requires sub-stoichiometric amounts of RHBDL4

B4: recombinant mouse RHBDL4, C-terminally His6-tagged, from E. coli (protein)
chain: MQRRTRGINTGLLLLLSQVFQIGINNIPPVTLATLAVNVWFFLNPWKPLYHSCISVEKCYQQKDWQRLLLSPLHHGDDWHLYFNMVSMLWKGVKLERRLGSRWFAYVIATFSLLTGVVYLLLQFTVAELLNQPDFKRNCAVGFSGVLFALKVLSNHYCPGGFVNILGFPVPNRFACWAELVAIHFCTPGTSFAGHLAGILVGLMYTQGPLKKIMDTCAGIFISHAGPSGQQNHFNNAGPSGYQNHYADGRPVTYDATYRNYDVYTAGLSEEEQLERALRASIWDRGNTRNGPMPYGFRLPPEEMRRQRLHRFDGQ
[1]
  in vitro cleavage assay (SDS-PAGE, decrease of intact substrate band): The substrate was cleaved, as indicated by the decreased amount of intact substrate band

B5: recombinant human RHBDL2 from E. coli (protein)
chain: MAAVHDLEMESMNLNMGREMKEELEEEEKMREDGGGKDRAKSKKVHRIVSKWMLPEKSRGTYLERANCFPPPVFIISISLAELAVFIYYAVWKPQKQWITLDTGILESPFIYSPEKREEAWRFISYMLVHAGVQHILGNLCMQLVLGIPLEMVHKGLRVGLVYLAGVIAGSLASSIFDPLRYLVGASGGVYALMGGYFMNVLVNFQEMIPAFGIFRLLIIILIIVLDMGFALYRRFFVPEDGSPVSFAAHIAGGFAGMSIGYTVFSCFDKALLKDPRFWIAIAAYLACVLFAVFFNIFLSPAN
[1]
  in vitro cleavage assay (SDS-PAGE, decrease of intact substrate band): The substrate was cleaved, as indicated by the decreased amount of intact substrate band
